Measurements reported in US10080774B2, “Oncolytic adenovirus armed with therapeutic genes” (priority 2002, dated 2018).
Where no end group is shown, it is not given here. FAM = 5(6)-carboxyfluorescein label; Ahx = NCCCCCC(=O)O

Legend:
P-MAPK = P-MAPK inhibition; format: cell-based, human; conditions: U-87 MG cells
Text: Although the correlation between MAPK activity and Ad-E1A-COX ability to replicate has been shown (Ahmed et al., 2003), the inventors have designed studies to assess the ability of retargeted constructs to replicate in glioma cells with high or low MAPK activity. To characterize the effects of the insertion of the 3′ UTR on E1A expression, inhibitors of kinases signaling, PD98059 (p42/p44 MAPK inhibitor), and for specificity testing: SB203580 (p38 MAPK inhibitor) and LY294002 (PI3K inhibitor) will be used. The inventors will use an isogenic U-87 MG system, containing a stably integrated, IPTG-inducible activated Ha-rasVal12 cDNA (Sheng et al., 2000). This model system is based in cells that only differ in the expression of an activated variant of the Hras oncogene, Ha-rasVal12 (Sheng et al., 2000). The will assess whether PTGS2 3′ UTR-mediated Ad-E1A-COX-Tie2 depends on the P-MAPK pathway. […] The replication capability of Ad-E1A-COX-Tie2 in U87-MG cells untreated and treated with PD98059 (and the control inhibitors) will be assessed. The inventors contemplate that inhibition of P-MAPK activity by PD98059 will greatly reduce the ability Ad-E1A-COX-Tie2 to replicate even with high expression of Ha-rasVal12 induced by IPTG in the isogenic U-87 MG. […]

Tie2 [1] = molecular target: T1, Tie2 (Homo sapiens, UniProt Q02763); set-up: expressed in transfected cells; host or cells: U-251 MG stably transfected with Tie-2 cDNA (parental U-251 MG is Tie2-negative); also A172 cells with endogenous Tie2; conditions: Tournaire et al. (2004); cited from earlier work
T1 sequence (Q02763 23-1124): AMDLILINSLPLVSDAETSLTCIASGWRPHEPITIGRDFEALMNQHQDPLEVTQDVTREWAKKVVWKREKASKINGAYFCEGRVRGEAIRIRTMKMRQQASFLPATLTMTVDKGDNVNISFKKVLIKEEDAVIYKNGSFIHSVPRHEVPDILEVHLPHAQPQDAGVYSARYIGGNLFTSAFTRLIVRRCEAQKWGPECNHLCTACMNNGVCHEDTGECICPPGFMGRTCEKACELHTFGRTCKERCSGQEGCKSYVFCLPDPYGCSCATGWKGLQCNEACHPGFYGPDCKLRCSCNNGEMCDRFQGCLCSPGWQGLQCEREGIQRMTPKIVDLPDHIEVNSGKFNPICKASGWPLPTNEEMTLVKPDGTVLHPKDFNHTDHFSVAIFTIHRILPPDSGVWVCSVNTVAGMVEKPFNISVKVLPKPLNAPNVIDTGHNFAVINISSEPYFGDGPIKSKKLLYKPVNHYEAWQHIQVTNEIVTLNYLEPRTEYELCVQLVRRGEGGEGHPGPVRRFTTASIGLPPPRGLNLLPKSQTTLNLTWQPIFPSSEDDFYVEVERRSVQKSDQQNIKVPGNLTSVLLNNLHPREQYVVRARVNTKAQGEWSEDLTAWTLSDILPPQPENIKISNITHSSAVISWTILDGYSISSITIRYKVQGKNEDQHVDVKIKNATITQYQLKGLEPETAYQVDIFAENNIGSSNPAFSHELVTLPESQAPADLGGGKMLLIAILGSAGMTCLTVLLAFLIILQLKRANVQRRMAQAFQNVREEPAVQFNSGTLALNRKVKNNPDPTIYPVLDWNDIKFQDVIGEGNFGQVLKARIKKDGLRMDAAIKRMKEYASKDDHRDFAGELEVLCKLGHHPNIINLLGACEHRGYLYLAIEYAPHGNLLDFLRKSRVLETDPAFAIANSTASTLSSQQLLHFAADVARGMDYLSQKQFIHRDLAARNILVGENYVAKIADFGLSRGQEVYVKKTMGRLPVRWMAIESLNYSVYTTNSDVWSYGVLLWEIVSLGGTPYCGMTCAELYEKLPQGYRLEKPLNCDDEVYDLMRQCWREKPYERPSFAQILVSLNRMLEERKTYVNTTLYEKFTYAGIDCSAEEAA

Tie2 [2] = molecular target: T1, Tie2; assay: Binding of T4 peptide to Tie2; set-up: expressed in transfected cells; host or cells: U-251 MG stably transfected with Tie-2 cDNA (parental U-251 MG is Tie2-negative); also A172 cells with endogenous Tie2; conditions: U-251 MG isogenic system and A172
Text: Testing the binding of the proposed Tie2-ligand, T4, the inventors synthesized the peptide linked to FAM signal that was suitable for flow cytometric detection. Peptide was synthesized by automatic solid phase chemistry using Fmoc strategy. The N-terminal aminohexanoic acid was labeled by coupling 5(6)-carboxyfluorescein. Peptides were purified to >98% purity by reverse phase HPLC.

U-87 MG cells [3] = assay: Chemotactic migration assay (Transwell); format: cell-based, human; conditions: 24 h
Protocol: Witzenbichler et al. (1998) have reported the chemotactic properties of Ang1 for Tie2-endothelial cells. A chemotaxis assay was performed in the presence or absence of Ang1. Incubation with various concentrations of Ang1 enhanced chemotactic migration of U-87 MG cells. Migration assay was performed as described previously (Gomez-Manzano, 2003). Briefly, the lower surface of the filter was coated with gelatin. 600 μl of DMEM/F-12 (1:1) containing rAng1 and 0.1% BSA was added into lower compartment of the Transwell chamber, and 100 μl of cell suspension was added in the upper chamber. After 24 h of incubation, the filters were fixed, stained with H/E, and the cells on the lower surface of the filters were counted at 400× with Zeiss microscope. Assays were performed in triplicate. […] To distinguish between chemotactic and chemokinetics effect of Ang1 on U-87 MG, an analysis was performed where similar doses of Ang1 were present above and below the filter. Significant migration was observed only when a concentration gradient of Ang1 was established, a finding typical of factors inducing chemotaxis.

U-87 MG cells [4] = assay: Glioma cell adhesion assay; format: cell-based, human; conditions: 1 hr
Text: It was reported that Ang1 promotes adhesion of Tie2+ hematopoietic stem cells to fibronectin and collagen and also promotes the interaction of endothelial cells with surrounding mesenchymal cells and the extracellular matrix (Davis et al., 1996; Suri et al., 1996; Arai et al., 2004). Therefore, the inventors analyzed the effects of Ang1/Tie2 signalling on glioma adhesion. Briefly, 96-well dishes were coated for 2 hr at room temperature (RT) with rAng1 diluted in PBS. Wells were then blocked for 30 min at RT with 0.5% heat-inactivated BSA in PBS (80° C. for 10 min) and washed three times with PBS before adding cells. U-87 MG cells were harvested and resuspended. 30,000 cells were seeded/well, and the plate was incubated at 37° C. for 1 hr. Nonadherent cells were removed and attached cells were fixed in 4% paraformaldehyde and stained with 0.2% crystal violet. Cells were solubilized in DMSO and absorbance of each well was read at 570 nm. […] Similar results were obtained when Tie2− and Tie2+U-251 MG were used. In addition, the possibility of Ang1-induced adhesion has been assessed. For that study, the wells were coated with several ECM and then, U-87 MG cells that were previously stimulated with Ang1 (BSA control), were plated on those wells. […]

Akt = Akt phosphorylation; format: cell-based, human; conditions: U-87 MG, 100-500 ng/ml
Text: Consistant with previous reports, Ang-1/Tie signaling in endothelial cells in vitro involves PI3K/Akt activation (DeBusk et al., 2004; Papapetropoulos et al., 2000).

Tie2 [5] = molecular target: T1, Tie2; assay: Tie2 phosphorylation, immunoprecipitation; format: cell-based; conditions: U-87 MG, 500 ng/ml, 10 min
Protocol: To explore the regulation of Tie2 signaling by Angs in U-87 MG cells, Tie2 was immunoprecipitated from membrane fractions of U-87 MG cells treated with rAng1 (500 ng/ml) for 10 min, and phosphorylation of Tie2 was addressed using anti-phosphotyrosine antibody.

Dok-R = assay: Tie2 association with Dok-R; format: cell-based, human; conditions: stable transfected Tie2 U-251 MG
Text: Tie2 can also recruit additional signaling molecules that participate in cellular pathways that affect the shape and migratory properties of cells. In this regard, the Tie2-associated docking protein Dok-R can potentiate NCK-dependent endothelial cell migration in response to Ang1 (Master et al., 2001; Jones et al., 2003).

Ras = Ras activity (Ras-GTP); format: cell-based, human; conditions: U-87 MG
Protocol: In addition, the inventors have obtained data regarding the upstream effector of p42/p44 MAPK, Ras, by analyzing Ras activity in Ang1-estimulated U-87 MG cells. Ras activity, which detects active GTP-bound Ras, was performed by immunoprecipitation of Ras-Raf complexes (contains only active Ras), and consequent western blotting detection of Ras-GTP molecule.

[6] = system: ERK1 (p44MAPK) and ERK2 (p42MAPK); assay: ERK1/2 (p42/p44 MAPK) phosphorylation, Western blot; format: cell-based, human
Protocol: HUVEC and U-87 MG cells were mock-, AdCMV- or AdAng-2-Infected. 24 hours later they were overnights serum-starved, and then stimulated with […] for 10 min. Cell lysates were collected and analyzed by Western blotting for expression of phospho- and total p42/p44 MAPK. Ang-1 increased ERK 1/2 phosphorylation what was inhibited by the viral-transduced Ang-2.
The Ang-2/Ang-1/Tie2 system has been studied in endothelial cells, and different pathways have been reported as involved in the cascade signaling; these include phosphotidylinositol […] (PI3-K), focal adhesion kinase, Raf/Ras/mitogen-activated protein kinase (MAPK), and Dok-R/Dok-2/Nck/Pak (Yoon et al., 2003). […] These cascades modulate protein synthesis and/or transcriptional activation. […] To measure MAPK activity, the inventors measured the degree of phosphorylation of two MAPKs, ERK1 (p44MAPK) and ERK2 (p42MAPK).
The Ang-2/Ang1/Tie2 system has been studied in endothelial cells, and different pathways have been reported as involved in the cascade signaling. […] MAPK activity was measured by the degree of phosphorylation of two MAPKs, ERK1 (p44^MAPK) and ERK2 (p42^MAPK).

Question: For `COc1cccc(-c2cc(=O)c3ccccc3o2)c1N` [PD98059], which P-MAPK expression (P-MAPK) is on record?
Answer: effectively inhibited P-MAPK expression

Question: What does the source list for “NLLMAAS ({FAM-Ahx}-NLLMAAS; also: 5(6)-carboxyfluorescein label (site not given here)) [T4]”?
Answer: binding of Ang1 and Ang-2 to the Tie2 receptor (Tie2 [1]): completely abolished; binding to cell membrane by flow cytometry (Tie2 [2]): binds preferentially to the membrane of cells overexpressing Tie2

B1: rhAng-1: recombinant angiopoietin-1 protein (protein)
chain: SNQRRSPENSGRRYNRIQHGQCAYTFILPEHDGNCRESTTDQYNTNALQRDAPHVEPDFSSQKLQHLEHVMENYTQWLQKLENYIVENMKSEMAQIQQNAVQNHTATMLEIGTSLLSQTAEQTRKLTDVETQVLNQTSRLEIQLLENSLSTYKLEKQLLQQTNEILKIHEKNSLLEHKILEMEGKHKEELDTLKEEKENLQGLVTRQTYIIQELEKQLNRATTNNSVLQKQQLELMDTVHNLVNLCTKEGVLLKGGKREEEKPFRDCADVYQAGFNKSGIYTIYINNMPEPKKVFCNMDVNGGGWTVIQHREDGSLDFQRGWKEYKMGFGNPSGEYWLGNEFIFAITSQRQYMLRIELMDWEGNRAYSQYDRFHIGNEKQNYRLYLKGHTGTAGKQSSLILHGADFSTKDADNDNCMCKCALMLTGGWWFDACGPSNLNGMFYTAGQNHGKLNGIKWHYFKGPSYSLRSTTMMIRPLDF
Question: With B1 as the molecule, how does the chemotactic migration (U-87 MG cells [3]) read?
Answer: significant increase in directed migration

Question: What about the “adhesion of U-87 cells to Ang1-coated wells” value (U-87 MG cells [4]) of the same molecule?
Answer: increasing adhesion properties

Question: What about the Akt phosphorylation (Akt) of the same molecule?
Answer: did not modify the pattern of phosphorylation of the Akt molecule

Question: And the Tie2 phosphorylation (Tie2 [5])?
Answer: induced phosphorylation of Tie2

Question: And the “Tie2 association with Dok-R” value (Dok-R)?
Answer: results in Tie2 association with Dok-R protein

Question: And the Ras activity (Ras)?
Answer: Ras activity increases

Question: And the ERK1/2 phosphorylation ([6]; HU-VEC-C endothelial cells, 100 ng/ml)?
Answer: increased ERK1/2 phosphorylation

Question: And the ERK1/2 phosphorylation ([6]; U-87 MG)?
Answer: increased ERK1/2 phosphorylation
